# According to the supplement of paper PMC9112550, “Optimization of the antimicrobial peptide Bac7 by deep mutational scanning” (BMC Biology, 2022):
# Tested on: Escherichia coli TOP10
# Test: shrunken log2 fold change of peptide-encoding DNA abundance (4.5 h post-induction vs induction); higher = less antimicrobial activity (less host growth inhibition)
# Conditions: time post-induction: 4.5 h; library: site-saturation at positions 5, 18, 19, 20
# 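Further: peptides expressed intracellularly from a pBAD plasmid library in pooled LB shake-flask culture, induced with 0.3% L-arabinose, DNA abundance read by NGS, three biological replicates, DESeq2 with apeglm shrinkage.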
row,Sequence,shrunken log2 fold change
1,RRIRLRPPRLPRPRPRPSNVPRP,-0.288
2,RRIRLRPPRLPRPRPRPSPRPRP,0.307
3,RRIRLRPPRLPRPRPRPSQKPRP,0.00285
4,RRIRLRPPRLPRPRPRPSQWPRP,0.0987
5,RRIRLRPPRLPRPRPRPSRCPRP,0.05
6,RRIRLRPPRLPRPRPRPSRIPRP,-0.15
7,RRIRLRPPRLPRPRPRPSSRPRP,-0.425
8,RRIRLRPPRLPRPRPRPSSYPRP,-0.542
9,RRIRLRPPRLPRPRPRPSTGPRP,-0.221
10,RRIRLRPPRLPRPRPRPSTHPRP,-0.59
11,RRIRLRPPRLPRPRPRPSVLPRP,-0.779
12,RRIRLRPPRLPRPRPRPSVSPRP,-0.0466
13,RRIRLRPPRLPRPRPRPSYKPRP,-0.456
14,RRIRLRPPRLPRPRPRPTAWPRP,0.222
15,RRIRLRPPRLPRPRPRPTCPPRP,0.0694
16,RRIRLRPPRLPRPRPRPTFLPRP,-0.153
17,RRIRLRPPRLPRPRPRPTGAPRP,-0.211
18,RRIRLRPPRLPRPRPRPTKGPRP,0.226
19,RRIRLRPPRLPRPRPRPTKTPRP,-0.0526
20,RRIRLRPPRLPRPRPRPTLNPRP,-0.0428
21,RRIRLRPPRLPRPRPRPTMWPRP,0.145
22,RRIRLRPPRLPRPRPRPTNQPRP,-0.327
23,RRIRLRPPRLPRPRPRPTNSPRP,-0.355
24,RRIRLRPPRLPRPRPRPTPTPRP,0.786
25,RRIRLRPPRLPRPRPRPTRTPRP,0.243

row,Sequence,shrunken log2 fold change
1,RRIRLRPPRLPRPRPRPTRYPRP,0.0777
2,RRIRLRPPRLPRPRPRPTSTPRP,-0.194
3,RRIRLRPPRLPRPRPRPTTEPRP,-0.00894
4,RRIRLRPPRLPRPRPRPTTKPRP,0.155
5,RRIRLRPPRLPRPRPRPTVMPRP,0.105
6,RRIRLRPPRLPRPRPRPTVNPRP,-0.119
7,RRIRLRPPRLPRPRPRPTYEPRP,-0.308
8,RRIRLRPPRLPRPRPRPTYTPRP,-0.317
9,RRIRLRPPRLPRPRPRPVACPRP,0.0944
10,RRIRLRPPRLPRPRPRPVEAPRP,0.224
11,RRIRLRPPRLPRPRPRPVEFPRP,0.0713
12,RRIRLRPPRLPRPRPRPVFKPRP,-0.134
13,RRIRLRPPRLPRPRPRPVGPPRP,0.163
14,RRIRLRPPRLPRPRPRPVGSPRP,-0.165
15,RRIRLRPPRLPRPRPRPVGWPRP,0.671
16,RRIRLRPPRLPRPRPRPVHHPRP,-0.105
17,RRIRLRPPRLPRPRPRPVIEPRP,-0.0888
18,RRIRLRPPRLPRPRPRPVIGPRP,-0.173
19,RRIRLRPPRLPRPRPRPVKDPRP,-0.211
20,RRIRLRPPRLPRPRPRPVLEPRP,-0.335
21,RRIRLRPPRLPRPRPRPVMNPRP,-0.18
22,RRIRLRPPRLPRPRPRPVMQPRP,0.00383
23,RRIRLRPPRLPRPRPRPVNFPRP,-0.13
24,RRIRLRPPRLPRPRPRPVNLPRP,0.0275
25,RRIRLRPPRLPRPRPRPVNNPRP,-0.269

row,Sequence,shrunken log2 fold change
1,RRIRLRPPRLPRPRPRPVNPPRP,0.0818
2,RRIRLRPPRLPRPRPRPVPEPRP,0.161
3,RRIRLRPPRLPRPRPRPVRHPRP,0.19
4,RRIRLRPPRLPRPRPRPVRRPRP,0.276
5,RRIRLRPPRLPRPRPRPVSTPRP,0.255
6,RRIRLRPPRLPRPRPRPVTVPRP,-0.128
7,RRIRLRPPRLPRPRPRPVTYPRP,-0.0255
8,RRIRLRPPRLPRPRPRPVVDPRP,0.117
9,RRIRLRPPRLPRPRPRPVWCPRP,0.0297
10,RRIRLRPPRLPRPRPRPVWWPRP,0.88
11,RRIRLRPPRLPRPRPRPVYLPRP,-1.14
12,RRIRLRPPRLPRPRPRPVYYPRP,-0.633
13,RRIRLRPPRLPRPRPRPWALPRP,0.0419
14,RRIRLRPPRLPRPRPRPWARPRP,0.482
15,RRIRLRPPRLPRPRPRPWASPRP,-0.0355
16,RRIRLRPPRLPRPRPRPWCNPRP,-0.121
17,RRIRLRPPRLPRPRPRPWCRPRP,0.0427
18,RRIRLRPPRLPRPRPRPWDFPRP,-0.00136
19,RRIRLRPPRLPRPRPRPWDMPRP,-0.235
20,RRIRLRPPRLPRPRPRPWFCPRP,-0.195
21,RRIRLRPPRLPRPRPRPWFMPRP,-0.0837
22,RRIRLRPPRLPRPRPRPWFQPRP,-0.0555
23,RRIRLRPPRLPRPRPRPWFWPRP,-0.0455
24,RRIRLRPPRLPRPRPRPWHLPRP,-0.28
25,RRIRLRPPRLPRPRPRPWIIPRP,-0.631

row,Sequence,shrunken log2 fold change
1,RRIRLRPPRLPRPRPRPWKHPRP,-0.0177
2,RRIRLRPPRLPRPRPRPWKNPRP,-0.114
3,RRIRLRPPRLPRPRPRPWLMPRP,-0.102
4,RRIRLRPPRLPRPRPRPWLTPRP,-0.18
5,RRIRLRPPRLPRPRPRPWLYPRP,-0.541
6,RRIRLRPPRLPRPRPRPWMDPRP,0.0138
7,RRIRLRPPRLPRPRPRPWMMPRP,0.00744
8,RRIRLRPPRLPRPRPRPWNCPRP,-0.493
9,RRIRLRPPRLPRPRPRPWPQPRP,0.244
10,RRIRLRPPRLPRPRPRPWQGPRP,-0.00192
11,RRIRLRPPRLPRPRPRPWSLPRP,-0.195
12,RRIRLRPPRLPRPRPRPWSYPRP,-1.41
13,RRIRLRPPRLPRPRPRPWYFPRP,-0.231
14,RRIRLRPPRLPRPRPRPWYHPRP,0.112
15,RRIRLRPPRLPRPRPRPWYIPRP,-0.137
16,RRIRLRPPRLPRPRPRPYAHPRP,-0.0393
17,RRIRLRPPRLPRPRPRPYAWPRP,0.0863
18,RRIRLRPPRLPRPRPRPYCFPRP,-0.909
19,RRIRLRPPRLPRPRPRPYCYPRP,-0.238
20,RRIRLRPPRLPRPRPRPYEMPRP,-0.468
21,RRIRLRPPRLPRPRPRPYEYPRP,-0.132
22,RRIRLRPPRLPRPRPRPYFCPRP,-0.34
23,RRIRLRPPRLPRPRPRPYFFPRP,-0.45
24,RRIRLRPPRLPRPRPRPYFPPRP,-0.802
25,RRIRLRPPRLPRPRPRPYFRPRP,-0.78

row,Sequence,shrunken log2 fold change
1,RRIRLRPPRLPRPRPRPYGTPRP,-0.68
2,RRIRLRPPRLPRPRPRPYIAPRP,-0.261
3,RRIRLRPPRLPRPRPRPYIMPRP,-1.45
4,RRIRLRPPRLPRPRPRPYIPPRP,-0.669
5,RRIRLRPPRLPRPRPRPYIYPRP,-1.24
6,RRIRLRPPRLPRPRPRPYKFPRP,-0.447
7,RRIRLRPPRLPRPRPRPYKSPRP,0.0344
8,RRIRLRPPRLPRPRPRPYMNPRP,-1.06
9,RRIRLRPPRLPRPRPRPYPIPRP,0.107
10,RRIRLRPPRLPRPRPRPYPPPRP,-0.866
11,RRIRLRPPRLPRPRPRPYPQPRP,-0.364
12,RRIRLRPPRLPRPRPRPYPTPRP,-0.317
13,RRIRLRPPRLPRPRPRPYSLPRP,-0.0459
14,RRIRLRPPRLPRPRPRPYTEPRP,-0.284
15,RRIRLRPPRLPRPRPRPYTPPRP,-0.484
16,RRIRLRPPRLPRPRPRPYVVPRP,-0.481
17,RRIRLRPPRLPRPRPRPYYKPRP,-0.569
18,RRIRMRPPRLPRPRPRPAAWPRP,0.11
19,RRIRMRPPRLPRPRPRPACEPRP,0.903
20,RRIRMRPPRLPRPRPRPACGPRP,0.811
21,RRIRMRPPRLPRPRPRPADWPRP,0.905
22,RRIRMRPPRLPRPRPRPAEGPRP,0.265
23,RRIRMRPPRLPRPRPRPAEMPRP,0.0981
24,RRIRMRPPRLPRPRPRPAEWPRP,0.375
25,RRIRMRPPRLPRPRPRPAFFPRP,0.403

row,Sequence,shrunken log2 fold change
1,RRIRMRPPRLPRPRPRPAHYPRP,-0.248
2,RRIRMRPPRLPRPRPRPAKHPRP,0.542
3,RRIRMRPPRLPRPRPRPALDPRP,0.94
4,RRIRMRPPRLPRPRPRPAMAPRP,0.778
5,RRIRMRPPRLPRPRPRPAMKPRP,-0.00492
6,RRIRMRPPRLPRPRPRPAMPPRP,0.548
7,RRIRMRPPRLPRPRPRPAMSPRP,0.177
8,RRIRMRPPRLPRPRPRPANRPRP,0.21
9,RRIRMRPPRLPRPRPRPAPFPRP,0.575
10,RRIRMRPPRLPRPRPRPAQEPRP,0.0616
11,RRIRMRPPRLPRPRPRPAQYPRP,0.377
12,RRIRMRPPRLPRPRPRPAREPRP,1.86
13,RRIRMRPPRLPRPRPRPAVMPRP,0.782
14,RRIRMRPPRLPRPRPRPAVPPRP,0.328
15,RRIRMRPPRLPRPRPRPAYCPRP,0.075
16,RRIRMRPPRLPRPRPRPAYIPRP,0.768
17,RRIRMRPPRLPRPRPRPCARPRP,0.343
18,RRIRMRPPRLPRPRPRPCDAPRP,0.261
19,RRIRMRPPRLPRPRPRPCFIPRP,-0.496
20,RRIRMRPPRLPRPRPRPCGHPRP,0.0237
21,RRIRMRPPRLPRPRPRPCICPRP,-0.0505
22,RRIRMRPPRLPRPRPRPCIWPRP,0.0563
23,RRIRMRPPRLPRPRPRPCLAPRP,0.215
24,RRIRMRPPRLPRPRPRPCMNPRP,-0.217
25,RRIRMRPPRLPRPRPRPCNKPRP,-0.372
